This is an account of results in patent publication US10647739B2, “Flavonoids O-A-glucosylated on the B cycle, method for the production thereof and uses” (Institut National de la Recherche Agronomique, priority 2014, dated 2020).

Numbering of substitutions follows the chain as printed. Numbers in names are those of the source. Where “and” joins values, the source holds several entries; their conditions need not be identical. Equal values may be shown once.

A short description of test [1]: apigenin glucosylation acceptor reaction with recombinant glucansucrases (microplate screening). It counts as biochemical. The conditions noted are these: sucrose 146 mM, apigenin 2.5 mM, 3% DMSO, 30° C., 24 h, HPLC-UV 340 nm peak areas. As for the experimental part:
(§1) The enzymatic extracts obtained are used to carry out the flavonoid glucosylation enzymatic screening reactions. The enzymatic activity of each centrifuged cell lysate is evaluated in the microplate format, by final weight after 30 minutes incubation in the presence of a final concentration of 146 mM of sucrose, by assaying the reducing sugars with 3,5-dinitrosalicylic acid (DNS). Finally, after dilution in ultrapure water, the absorbance is read at 540 nm.
(§2) The flavonoid acceptor reactions are then carried out in deep-well microplates, in a volume of 300 μl, at final concentrations of sucrose of 146 mM and of flavonoid of 2.5 mM (apigenin) or 5 mM (naringenin) (initially dissolved in 100% DMSO), and 140 μl of centrifuged cell lysate.
(§3) The final DMSO concentration in the reaction medium is 3% (v/v).
(§4) The incubation is carried out at 30° C. and at 700 rpm. After 24 hours, the enzymes are denatured at 95° C. for 15 minutes. These microplates are stored at −80° C. with a view to rapid evaluation of the flavonoid glucosylation by liquid-phase chromatography coupled to mass spectrometry (HPLC-MS or LC-MS).
(§5) With a view to their analyses by HPLC-MS, the extensively homogenized reaction media are diluted to 1/30th in DMSO. The separation of the flavonoids and of their glucosylated forms is carried out in reverse phase with a ProntoSlL Eurobond® 53×3.0 mm 120-3-C18-AQ column (porosity of 120 Å, particle size of 3 μm, C18 grafting, Bischoff Chromatography, Germany).
(§6) The flavonoid glucosylation efficiency was determined from the following formula: Glucosylation efficiency=(Σ(area of the peak of glucosylated flavonoid(s)))/(Σ(area of the peak of glucosylated flavonoid(s))+area of the peak of residual aglycone flavonoid)×100
The flavonoid glucosylation efficiencies, expressed as a percentage, were calculated from the areas of the peaks of the various products analyzed, as described in example 1, by HPLC with a UV detector (340 nm) after 24 h of reaction.

Test [2] in a line: naringenin glucosylation acceptor reaction with recombinant glucansucrases (microplate screening). The conditions noted are these: sucrose 146 mM, naringenin 5 mM, 3% DMSO, 30° C., 24 h, HPLC-UV 340 nm peak areas. The format is biochemical. As for the experimental part: as §1, §2, §3, §4, §5, §6
The flavonoid glucosylation efficiency was determined from the formula set out in example 2. The flavonoid glucosylation efficiencies, expressed as a percentage, were calculated from the areas of the peaks of the various products analyzed, as described in example 1, by HPLC with a UV detector (λ340 nm), after 24 h of reaction.

For “α-1,2 BrS: wild-type glucansucrase α-1,2 BrS, SEQ ID NO: 11”, in test [1], the apigenin glucosylation efficiency stood at 2.5%. For the same molecule, in test [2], the naringenin glucosylation efficiency was determined as 26.8%.

B1: ASNp WT: wild-type recombinant amylosucrase from Neisseria polysaccharea (protein, UniProt Q9ZEU2 1-636, looked up)
Amylosucrase: MLTPTQQVGLILQYLKTRILDIYTPEQRAGIEKSEDWRQFSRRMDTHFPKLMNELDSVYGNNEALLPMLEMLLAQAWQSYSQRNSSLKDIDIARENNPDWILSNKQVGGVCYVDLFAGDLKGLKDKIPYFQELGLTYLHLMPLFKCPEGKSDGGYAVSSYRDVNPALGTIGDLREVIAALHEAGISAVVDFIFNHTSNEHEWAQRCAAGDPLFDNFYYIFPDRRMPDQYDRTLREIFPDQHPGGFSQLEDGRWVWTTFNSFQWDLNYSNPWVFRAMAGEMLFLANLGVDILRMDAVAFIWKQMGTSCENLPQAHALIRAFNAVMRIAAPAVFFKSEAIVHPDQVVQYIGQDECQIGYNPLQMALLWNTLATREVNLLHQALTYRHNLPEHTAWVNYVRSHDDIGWTFADEDAAYLGISGYDHRQFLNRFFVNRFDGSFARGVPFQYNPSTGDCRVSGTAAALVGLAQDDPHAVDRIKLLYSIALSTGGLPLIYLGDEVGTLNDDDWSQDSNKSDDSRWAHRPRYNEALYAQRNDPSTAAGQIYQGLRHMIAVRQSNPRFDGGRLVTFNTNNKHIIGYIRNNALLAFGNFSEYPQTVTAHTLQAMPFKAHDLIGGKTVSLNQDLTLQPYQVMWLEIA
Regarding B1, the apigenin glucosylation efficiency is 0.5±0.5% and 0.5% in test [1]; 0.6% in test [1] (listed as A289A); 0.1% in test [1] (listed as D394D); 0.8% in test [1] (listed as F229F); 0.8% in test [1] (listed as F290F); 0.8% in test [1] (listed as I228I). The apigenin glucosylation efficiency was determined as 0.8% in test [1] (listed as I330I), 0.3% in test [1] (listed as R226R) and 0.2% in test [1] (listed as V331V). The naringenin glucosylation efficiency is 4.7±1.7% and 4.7% in test [2]; 3.4% in test [2] (listed as A289A); 0.0% in test [2] (listed as D394D); 0.0% in test [2] (listed as F229F); 0.0% in test [2] (listed as F290F); 0.0% in test [2] (listed as I228I). The naringenin glucosylation efficiency stood at 0.0% in test [2] (listed as I330I), 2.5% in test [2] (listed as R226R), 6.0% in test [2] (listed as R446R) and 4.7% in test [2] (listed as V331V).

B2: V331A: ASNp amylosucrase single mutant (protein, UniProt Q9ZEU2 1-636, looked up, variant V331A)
Amylosucrase: B1 Amylosucrase with V331A
For the molecule B2, the apigenin glucosylation efficiency in test [1] stood at 0.5%. The naringenin glucosylation efficiency in test [2] amounted to 0.0%.

B3: V331M: ASNp amylosucrase single mutant (protein, UniProt Q9ZEU2 1-636, looked up, variant V331M)
Amylosucrase: B1 Amylosucrase with V331M
For B3, the apigenin glucosylation efficiency in test [1] is listed as 0.1%. Further, the naringenin glucosylation efficiency in test [2] was 0.0%.

B4: V331L: ASNp amylosucrase single mutant (protein, UniProt Q9ZEU2 1-636, looked up, variant V331L)
Amylosucrase: B1 Amylosucrase with V331L
With B4, the apigenin glucosylation efficiency in test [1] came to 0.3%. For the same molecule, the naringenin glucosylation efficiency in test [2] turned out to be 0.0%.

B5: DSR-S vardelΔ4N S512C: mutant of truncated DSR-S, SEQ ID NO: 10 (protein)
chain: TQQVSGKYVEKDGSWYYYFDDGKNAKGLSTIDNNIQYFYESGKQAKGQYVTIDNQTYYFDKGSGDELTGLQSIDGNIVAFNDEGQQIFNQYYQSENGTTYYFDDKGHAATGIKNIEGKNYYFDNLGQLKKGFSGVIDGQIMTFDQETGQEVSNTTSEIKEGLTTQNTDYSEHNAAHGTDAEDFENIDGYLTASSWYRPTGILRNGTDWEPSTDTDFRPILSVWWPDKNTQVNYLNYMADLGFISNADSFETGDSQSLLNEASNYVQKSIEMKISAQQSTEWLKDAMAAFIVAQPQWNETSEDMSNDHLQNGALTYVNSPLTPDANSNFRLLNRTPTNQTGEQAYNLDNSKGGFELLLANQEDNSNVVVEAEQLNWLYYLMNFGTITANDADANFDGIRVDAVDNVDADLLQIAADYFKLAYGVDQNDATANQHLSILEDWSHNDPLYVTDQGSNQLTMDDYVHTQLIWSLTKSSDIRGTMQRFVDYYMVDRSNDSTENEAIPNYSFVRAHDCEVQTVIAQIVSDLYPDVENSLAPTTEQLAAAFKVYNEDEKLADKKYTQYNMASAYAMLLTNKDTVPRVYYGDLYTDDGQYMATKSPYYDAINTLLKARVQYVAGGQSMSVDSNDVLTSVRYGKDAMTASDTGTSETRTEGIGVIVSNNAELQLEDGHTVTLHMGAAHKNQAYRALLSTTADGLAYYDTDENAPVAYTDANGDLIFTNESIYGVQNPQVSGYLAVWVPVGAQQDQDARTASDTTTNTSDKVFHSNAALDSQVIYEGFSNFQAFATDSSEYTNVVIAQNADQFKQWGVTSFQLAPQYRSSTDTSFLDSIIQNGYAFTDRYDLGYGTPTKYGTADQLRDAIKALHASGIQAIADWVPDQIYNLPEQELATVTRTNSFGDDDTDSDIDNALYVVQSRGGGQYQEMYGGAFLEELQALYPSLFKVNQISTGVPIDGSVKITEWAAKYFNGSNIQGKGAGYVLKDMGSNKYFKVVSNTEDGDYLPKQLTNDLSETGFTHDDKGIIYYTLSGYRAQNAFIQDDDNNYYYFDKTGHLVTGLQKINNHTYFFLPNGIELVKSFLQNEDGTIVYFDKKGHQVFDQYITDQNGNAYYFDDAGVMLKSGLATIDGHQQYFDQNGVQVKDKFVIGTDGYKYYFEPGSGNLAILRYVQNSKNQWFYFDGNGHAVTGFQTINGKKQYFYNDGHQSKGEFIDADGDTFYTSATDGRLVTGVQKINGITYAFDNTGNLITNQYYQLADGKYMLLDDSGRAKTGFVLQDGVLRYFDQNGEQVKDAIIVDPDTNLS
modifications: Leuconostoc mesenteroides
Consider B5, for which the apigenin glucosylation efficiency in test [1] and in test [1] (listed as S512C) was 13.9% in each case. Moreover, the naringenin glucosylation efficiency in test [2] was 0.0%.
